The values below come from publication PMC3200309 (Cell, 2011).

The target of test [1] is scFv45 (conformation-sensor single chain variable fragment, purified from E. coli) (chicken). As to the kind of experiment: SPR. (In general: Surface plasmon resonance follows binding to a sensor surface in real time, without labels.)
Test [2] deals with PTP1B-CASA mutant (C215A, S216A), PTP1B (1-321) (Homo sapiens, UniProt P18031, Cys215 to Ala | Ser216 to Ala). As to the kind of experiment: SPR.

The term Kd denotes the free concentration of one partner at which half of the binding sites on the other are occupied at equilibrium, for simple one-to-one binding. As usually defined, the koff is the first-order rate constant of dissociation.

B1: PTP1B-OX, PTP1B (1-321) reversibly oxidized with H2O2 (domain or fragment)
chain: MEMEKEFEQIDKSGSWAAIYQDIRHEASDFPCRVAKLPKNKNRNRYRDVSPFDHSRIKLHQEDNDYINASLIKMEEAQRSYILTQGPLPNTCGHFWEMVWEQKSRGVVMLNRVMEKGSLKCAQYWPQKEEKEMIFEDTNLKLTLISEDIKSYYTVRQLELENLTTQETREILHFHYTTWPDFGVPESPASFLNFLFKVRESGSLSPEHGPVVVHCSAGIGRSGTFCLADTCLLLMDKRKDPSSVDIKKVLLEMRKFRMGLIQTADQLRFSYLAVIEGAKFIMGDSSVQDQWKELSHEDLEPPPEHIPPPPRPPKRILEPHN
modifications: active site Cys215 reversibly oxidized (cyclic sulfenyl-amide: S of Cys215 linked to the main-chain N of Ser216)
Turning to B1, in test [1], the equilibrium dissociation constant (Kd) is 46 nM and the koff amounted to 0.0023 s⁻¹.

B2: scFv45 (conformation-sensor single chain variable fragment, purified from E. coli) (scFv, V domains shown)
VH: TVTLDESGGGLQAPGGALSLVCKASGFTFSSYDMGWIRQAPGKGLEYVAGITDNGRYASYGSAVDGRATISRDNGQSSVRLQLNNLRAEDTGTYYCARDDGSGWTGNSIDAWGHGTEVIVSS
VL: LTQPSSVSANPGGTVKITCSGSSSAYGYGWYQQKSPGSAPVTVIYNNNKRPSNIPSRFSGSKSGSTGTLTITGVQAEDEAVYFCGSEDSSTDAIFGAGTTLTVL
Regarding B2, the affinity in test [2], expressed as Kd, was 52 nM.
